Assay results reported in PMC11694511.

What was measured:
[1] = target: LolA from Vibrio cholerae (V. cholerae) (UniProt A5F2G9); assay: ITC
[2] = target: LolA from Porphyromonas gingivalis (P. gingivalis); assay: ITC

Substance	Kd [1] [µM]	Kd [2] [µM]
polymyxin B (peptide)	56	–
colistin (peptide)	91	33
